Results: US20220356228A1 (ICAHN SCHOOL OF MEDICINE AT MOUNT SINAI, published 2022)
Residue numbers refer to the chain shown, from its start.

B1: 4D11 (antibody, V domains shown)
VH: QVQLVESGGGLVKPGGSLRLSCAGSGFTFSDHYMSWIRQAPGKGLEWVSYISTSGRTIYYADSVKGRFTISRDNAKNSLYLQMNSLRAEDTAVYYCASDYYDNSGWYYWGQGTLVTVSS
VL: not shown
B2: 1G8 (antibody, V domains shown)
VH: B1 VH with G24A, H32F, K43M, T53F, T57A, K65R, R87S, S104V, Y107D, Q111P
VL: not shown
B3: 1A3 (antibody, V domains shown)
VH: B1 VH with G24A, G26E, F27I, H32Y, V48I, Y60F, E89D, Y100F, Y107E
VL: DVVMTQSPLSLSVTLGQPASISCRSSQSLVYSDGNTYLNWFQQRPGQSPRRLIYKVSDRDSGVPDRFSGSGSGTDFTLKISRAEAEDVGVYYCMQGTHWPRTFGQGTKVEIK
B4: 1F11 (antibody, V domains shown)
VH: B1 VH with G24A, H32L, S98G, Y107D, Q111R
VL: not shown
B5: 1E12 (antibody, V domains shown)
VH: B1 VH with A23T, G24A, S54G, S104V, Y107D
VL: B3 VL with M4L, S12P, V30I, A83V
B6: 1E8 (antibody, V domains shown)
VH: B1 VH with G24A, R56S, Y107N
VL: B3 VL with S12P, K79R, A83V, T97S
B7: 2A11 (antibody, V domains shown)
VH: B1 VH with G24A, A61V, T91M, S104V, Y107N, T113A
VL: B3 VL with M4L, S12P, S61F, A83V, V90I
B8: 1H10 (antibody, V domains shown)
VH: EVQLLESGGGLVQPGGSLRLSCAASGFTLSTYAMSWVRQAPGKGLEWVSAISGTGLSTYYADSLKGRFTISRDISKNTLYLQMSSLKAEDTAVYYCAKGLELFYFYYGMDVWGQGTTVTVSS
VL: EIVLTQSPGTLSLSPGERATLSCRASQSVSSTYLAWYQQKPGQAPRLLIYGTSSRATGIPDRFSGSGSGTDFTLTISRLEPEDLAVYYCQQYGRSLIFGQGTRLEIK
B9: 3D2 (antibody, V domains shown)
VH: QVQLQQWGAGLLKPSETLSLTCAVFGGSFSSYYWSWIRHPPGKGLEWIGDINHSGSTNYNPSLKSRVTLSVDTSKNQFSLKVTSVTAADTAVYYCARWGIAADYGMDVWGQGTTVTVSS
VL: EIVLTQSPGTLSLSPGERATLSCRASQSVSSSYLAWYQQKPGQAPRLLIYGASSRATGIPDRFSDSGSGTDFTLTISRLEPEDFALYYCQQYGTSPWTFGQGTKVEIK
B10: 4E2 (antibody, V domains shown)
VH: B1 VH with G24A, H32F, K43M, T53F, T57A, K65R, R87S, S104V, Y107D, Q111P
VL: not shown
B11: 1H1 (antibody, V domains shown)
VH: B1 VH with G24A, H32F, K43M, T53F, T57A, K65R, R87S, S104V, Y107D, Q111P
VL: not shown
B12: 1A7 (antibody, V domains shown)
VH: QVQLVQSGAEVKKPGASVKVSCKASGYTFTFYDINWVRQATGQGLEWMGWMNPNSGNTGYAQNFQGRVTMTRNTSINTAYLELSSLRSEDTAVYYCARKIWVGHTTFDRWGQGTLVTVSS
VL: AIQMTQSPSSLSASVGDRVTITCRASQSISGYLNWYQQKPGKAPNLLIYAASNLQSGVPSRFSGSGSGTDFTLTISSLQREDFAPYYCQQTYNIPFTFGGGTKVEIK
B13: 2A6 (antibody, V domains shown)
VH: QVQLQQWGAGLLKPSETLSLTCAVYGGSFSGYYWSWIRQPPGKGLEWIGDINHGGSTNYNPSLKSRVIISVDTSKNQFSLKLSSVTAADTALYYCARGWGGQVAHWFDPWGQGTLGTVSS
VL: DIVMTQSPDSLALSLGERATINCKSSQSVLFSSNNQNYLAWYQQKPGQPPKLLIYWASTRESGVPDRFSGSGSGTDFTLTVSSLQAEDVAVYFCQQYYSLPYTFGQGTKLEIK
B14: 8A7 (antibody, V domains shown)
VH: QVQLQESGPGLVKPSETLSLTCTVSGGSISSNYWNWIRQPPGKGLEWIGYIYYSGSTNYNPSLKSRVTISVDTSKNQFSLKLSSVTAADTAVYYCARRGFEQQLSYYYYYGLDVWGQGTTVTVSS
VL: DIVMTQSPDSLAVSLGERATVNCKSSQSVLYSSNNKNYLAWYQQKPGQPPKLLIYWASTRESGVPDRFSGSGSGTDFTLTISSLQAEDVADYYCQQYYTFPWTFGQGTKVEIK

molecular target: T1, JCV VP1 mutant L55F (John Cunningham virus (JCV), UniProt P03089 1-354); test: cell-based or functional assay

Row | Binder | Neutralization of JCV L55F: EC50 [pM]
1 | B1 | 245 pM
2 | B2 | 511 pM
3 | B3 | 6600 pM
4 | B4 | 76 pM
5 | B5 | 56.7 pM
6 | B6 | 3380 pM
7 | B7 | 45.5 pM

molecular target: T2, JCV VP1 mutant S269F (John Cunningham virus (JCV), UniProt P03089 1-354); test: cell-based or functional assay

Row | Binder | Neutralization of JCV S269F: EC50 [pM]
8 | B8 | 20.9 pM
9 | B9 | 733 pM
10 | B1 | 12.7 pM
11 | B10 | 30 pM
12 | B11 | 55.3 pM
13 | B2 | 22.7 pM
14 | B3 | 37.3 pM
15 | B4 | 53 pM
16 | B5 | 105 pM
17 | B6 | 55.3 pM
18 | B7 | 250 pM
19 | B12 | 7 pM

molecular target: T3, JCV major capsid protein VP1, wild type (John Cunningham virus (JCV), UniProt P03089 1-354); test: cell-based or functional assay

Row | Binder | Neutralization of wild type JCV, EC50 [pM]
20 | B13 | 2710 pM
21 | B8 | 155 pM
22 | B9 | 2250 pM
23 | B1 | 124 pM
24 | B10 | 160 pM
25 | B11 | 182 pM
26 | B2 | 144 pM
27 | B3 | 301 pM
28 | B4 | 111 pM
29 | B5 | 16 pM
30 | B6 | 127 pM
31 | B7 | 146 pM
32 | B12 | 180 pM

molecular target: T1, JCV VP1 mutant L55F; test: ELISA, plates coated with pseudovirus, purified antibody

Row | Binder | binding result | AB conc. (lowest concentration of antibody that gave a clear signal above background) | EC50
33 | B13 | no binding (tested: 2.5 ng/ml to 200 ng/ml) | – | –
34 | B9 | no binding (tested: 2.5 ng/ml to 200 ng/ml) | – | –
35 | B1 | – | < 2.5 ng/mL | 7.7 ng/mL
36 | B10 | – | < 2.5 ng/mL | 13.2 ng/mL
37 | B11 | – | < 2.5 ng/mL | 14.7 ng/mL
38 | B2 | – | < 2.5 ng/mL | 16.7 ng/mL
39 | B3 | – | < 2.5 ng/mL | 14.3 ng/mL
40 | B4 | – | < 7.4 ng/mL | 14.3 ng/mL
41 | B5 | – | < 2.5 ng/mL | 7.7 ng/mL
42 | B6 | – | < 22 ng/mL | 46.5 ng/mL
43 | B7 | – | < 7.4 ng/mL | 13.6 ng/mL
44 | B12 | no binding (tested: 2.5 ng/ml to 200 ng/ml) | – | –

molecular target: T2, JCV VP1 mutant S269F; test: as above

Row | Binder | AB conc. (lowest concentration of antibody that gave a clear signal above background) | EC50
45 | B13 | < 22 ng/mL | 147 ng/mL
46 | B8 | < 7.4 ng/mL | 18.5 ng/mL
47 | B9 | < 22 ng/mL | 121 ng/mL
48 | B1 | < 2.5 ng/mL | 6.9 ng/mL
49 | B10 | < 2.5 ng/mL | 7.1 ng/mL
50 | B11 | < 2.5 ng/mL | 7.5 ng/mL
51 | B2 | < 2.5 ng/mL | 7.7 ng/mL
52 | B3 | < 2.5 ng/mL | 8 ng/mL
53 | B4 | < 2.5 ng/mL | 7.6 ng/mL
54 | B5 | < 7.4 ng/mL | 8.5 ng/mL
55 | B6 | < 2.5 ng/mL | 22 ng/mL
56 | B7 | < 2.5 ng/mL | 6.8 ng/mL
57 | B12 | < 2.5 ng/mL | 7.4 ng/mL

molecular target: T3, JCV major capsid protein VP1, wild type; test: as above

Row | Binder | EC50 | AB conc. (lowest concentration of antibody that gave a clear signal above background)
58 | B14 | 8.5 ng/mL | –
59 | B13 | 1300 ng/mL | < 200 ng/mL
60 | B8 | 19.3 ng/mL | < 22 ng/mL
61 | B9 | 393 ng/mL | < 67 ng/mL
62 | B1 | 1.9 ng/mL | < 2.5 ng/mL
63 | B10 | 11.7 ng/mL | < 7.4 ng/mL
64 | B11 | 6.5 ng/mL | < 2.5 ng/mL
65 | B2 | 7 ng/mL | < 2.5 ng/mL
66 | B3 | 7.1 ng/mL | < 2.5 ng/mL
67 | B4 | 9.4 ng/mL | < 7.4 ng/mL
68 | B5 | 8.4 ng/mL | < 7.4 ng/mL
69 | B6 | 8 ng/mL | < 2.5 ng/mL
70 | B7 | 7.4 ng/mL | < 7.4 ng/mL
71 | B12 | 24.7 ng/mL | < 22 ng/mL
